Target: T1, β3 integrin (Mus musculus, UniProt O54890+P43406)
T1 construct: we isolated primary CD8+ T-cells from melanoma bearing mice; endogenous in cells; host or cells: primary CD8+ T-cells isolated from melanoma bearing mice
T1 sequence (O54890 26-787): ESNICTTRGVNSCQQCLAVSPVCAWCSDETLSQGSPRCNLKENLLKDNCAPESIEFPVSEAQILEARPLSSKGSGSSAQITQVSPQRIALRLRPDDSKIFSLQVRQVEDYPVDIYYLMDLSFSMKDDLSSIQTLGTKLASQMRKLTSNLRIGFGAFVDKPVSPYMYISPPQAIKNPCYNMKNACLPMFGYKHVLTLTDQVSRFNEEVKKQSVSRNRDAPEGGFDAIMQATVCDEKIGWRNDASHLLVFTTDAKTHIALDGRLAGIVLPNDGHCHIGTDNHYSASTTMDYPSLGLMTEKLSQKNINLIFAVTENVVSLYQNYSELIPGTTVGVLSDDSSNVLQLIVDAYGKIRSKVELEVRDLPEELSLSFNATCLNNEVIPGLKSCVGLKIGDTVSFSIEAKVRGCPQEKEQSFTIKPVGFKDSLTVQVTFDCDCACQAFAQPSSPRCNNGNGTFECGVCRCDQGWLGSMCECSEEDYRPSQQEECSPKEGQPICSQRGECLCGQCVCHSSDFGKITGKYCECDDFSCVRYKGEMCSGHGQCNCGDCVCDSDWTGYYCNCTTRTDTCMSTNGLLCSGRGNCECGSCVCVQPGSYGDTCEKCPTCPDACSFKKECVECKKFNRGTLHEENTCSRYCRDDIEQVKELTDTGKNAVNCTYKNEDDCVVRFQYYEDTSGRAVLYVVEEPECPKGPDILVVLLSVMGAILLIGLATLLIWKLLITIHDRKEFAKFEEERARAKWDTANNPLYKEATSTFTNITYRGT
T1 sequence (P43406 31-885 limits assumed): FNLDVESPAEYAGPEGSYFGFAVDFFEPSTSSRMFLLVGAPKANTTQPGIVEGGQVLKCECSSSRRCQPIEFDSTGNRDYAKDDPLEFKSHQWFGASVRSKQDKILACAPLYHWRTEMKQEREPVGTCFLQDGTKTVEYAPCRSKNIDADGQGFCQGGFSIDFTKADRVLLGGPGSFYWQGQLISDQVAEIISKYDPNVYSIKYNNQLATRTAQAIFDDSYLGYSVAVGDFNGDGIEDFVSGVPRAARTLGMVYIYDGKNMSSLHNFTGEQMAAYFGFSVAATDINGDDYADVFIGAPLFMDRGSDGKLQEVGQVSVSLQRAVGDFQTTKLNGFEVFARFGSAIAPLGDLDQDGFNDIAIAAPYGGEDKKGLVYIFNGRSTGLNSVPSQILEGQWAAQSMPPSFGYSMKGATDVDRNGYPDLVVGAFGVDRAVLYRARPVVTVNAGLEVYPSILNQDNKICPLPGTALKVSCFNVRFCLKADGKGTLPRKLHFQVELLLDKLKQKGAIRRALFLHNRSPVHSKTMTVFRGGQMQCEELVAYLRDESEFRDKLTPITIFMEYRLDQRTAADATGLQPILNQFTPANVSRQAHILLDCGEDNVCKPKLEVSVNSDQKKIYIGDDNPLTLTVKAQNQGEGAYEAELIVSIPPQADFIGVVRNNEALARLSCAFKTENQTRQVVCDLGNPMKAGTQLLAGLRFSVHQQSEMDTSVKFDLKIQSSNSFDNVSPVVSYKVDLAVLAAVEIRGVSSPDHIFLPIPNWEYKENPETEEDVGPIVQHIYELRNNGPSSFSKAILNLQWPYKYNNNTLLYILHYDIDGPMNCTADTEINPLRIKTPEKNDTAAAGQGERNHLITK
T1 sequence (P43406 887-1044 partner limits assumed): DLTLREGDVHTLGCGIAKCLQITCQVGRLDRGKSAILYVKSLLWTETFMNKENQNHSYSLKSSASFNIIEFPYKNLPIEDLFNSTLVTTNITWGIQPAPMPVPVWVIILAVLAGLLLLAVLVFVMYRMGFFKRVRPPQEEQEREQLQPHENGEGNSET
Experiment: Western blot of β3 integrin phosphorylation in primary CD8+ T-cells after peptide stimulation
Format: cell-based, murine
Details: primary CD8+ T-cells from melanoma bearing mice, compared to control peptide CP
Method: FIGS. 2A-2F. Detection of RGDKGE (SEQ ID NO: 1)-containing collagen peptide in malignant tumor cells and expression of key signaling molecules in T-cells. Briefly, whole cell lysates and serum free concentrated conditioned medium was prepared from tumor cells lines. FIG. 2A. Western blot analysis of whole cell lysates from human C8161 and murine B16F10 melanoma cells for the expression of the low molecular weight 16 kDa RGDKGE (SEQ ID NO: 1)-containing collagen peptide (XL313) or actin as a loading control. FIG. 2B. […]
Whole cell and CAM tissue lysates were collected in RIPA buffer (10 mM Tris-HCl, pH 8.0; 1 mM EDTA; 0.5 mM EGTA; 1% Triton X-100; 0.1% Sodium Deoxycholate; 0.1% SDS; 140 mM NaCl) supplemented with 1× protease inhibitor and 1× phosphatase inhibitor and were run on polyacrylamide gels using denaturing conditions. […] Western blot bands were quantified using Image J software based on pixel intensity.
We previously made the surprising observation that a small bioactive collagen peptide containing the core amino acid sequence RGDKGE (SEQ ID NO: 1) could be generated inside a subset of M2-like activated macrophages as well as a variety of other malignant tumor cells, and then actively secreted outside the cells (11-13). Importantly, minimal levels of this soluble collagen peptide was detected in normal cells (13). […]

Sequence: QGPRGDKGE (CQGPRGDKGEC; Synthetic: Synthetic collagen RGD containing peptide P-2) [Peptide P2, synthetic version of the soluble RGDKGE-containing collagen peptide]
- β3 integrin phosphorylation: enhanced β3 integrin phosphorylation

Reference: patent US20240327506A1, “METHODS AND COMPOSITION FOR THE SELECTIVE ENHANCEMENT OF ADOPTIVE CELL THERAPY” (MaineHealth, priority 2023, published 2024)
